{"source": "paper PMC4837482", "about": "“The complex binding mode of the peptide hormone H2 relaxin to its receptor RXFP1” (Nature Communications, 2016)", "key": {"RXFP1 F54A": {"target": "T1, RXFP1 F54A (Homo sapiens, UniProt Q9HBX9, F76A)", "T1 construct": "cells expressing full-length RXFP1 and mutants; expressed in transfected cells; host or cells: HEK293T", "T1 sequence (Q9HBX9 23-757 F76A limits assumed)": "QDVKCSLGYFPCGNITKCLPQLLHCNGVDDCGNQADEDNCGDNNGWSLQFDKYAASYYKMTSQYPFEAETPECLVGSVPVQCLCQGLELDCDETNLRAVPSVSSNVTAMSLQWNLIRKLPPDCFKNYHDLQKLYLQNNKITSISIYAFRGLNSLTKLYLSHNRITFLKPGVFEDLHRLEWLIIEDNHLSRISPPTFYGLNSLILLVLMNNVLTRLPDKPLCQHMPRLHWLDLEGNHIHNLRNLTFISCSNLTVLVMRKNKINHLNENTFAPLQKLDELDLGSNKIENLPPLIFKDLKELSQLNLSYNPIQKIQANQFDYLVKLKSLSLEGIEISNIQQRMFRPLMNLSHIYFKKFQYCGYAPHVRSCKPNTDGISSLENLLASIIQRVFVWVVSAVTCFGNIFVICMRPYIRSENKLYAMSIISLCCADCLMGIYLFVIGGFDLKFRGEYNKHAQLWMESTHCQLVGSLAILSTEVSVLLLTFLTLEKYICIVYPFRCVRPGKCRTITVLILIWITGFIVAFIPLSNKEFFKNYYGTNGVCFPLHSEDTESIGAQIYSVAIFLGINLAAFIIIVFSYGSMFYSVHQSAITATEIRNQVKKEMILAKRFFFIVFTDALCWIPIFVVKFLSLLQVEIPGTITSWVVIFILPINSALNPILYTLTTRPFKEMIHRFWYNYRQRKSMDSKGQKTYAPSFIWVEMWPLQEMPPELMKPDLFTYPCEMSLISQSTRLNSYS", "experiment": "Eu-H2 relaxin saturation binding assay, transfected HEK293T cells", "conditions": "F54A-RXFP1 versus wild-type RXFP1"}, "RXFP1 C40A^ins": {"target": "T2, RXFP1 C40A^ins (Homo sapiens, UniProt Q9HBX9, INS62A)", "T2 construct": "cells expressing full-length RXFP1 and mutants; expressed in transfected cells; host or cells: HEK293T", "T2 sequence (Q9HBX9 with tags, fused parts or gaps INS62A limits assumed)": "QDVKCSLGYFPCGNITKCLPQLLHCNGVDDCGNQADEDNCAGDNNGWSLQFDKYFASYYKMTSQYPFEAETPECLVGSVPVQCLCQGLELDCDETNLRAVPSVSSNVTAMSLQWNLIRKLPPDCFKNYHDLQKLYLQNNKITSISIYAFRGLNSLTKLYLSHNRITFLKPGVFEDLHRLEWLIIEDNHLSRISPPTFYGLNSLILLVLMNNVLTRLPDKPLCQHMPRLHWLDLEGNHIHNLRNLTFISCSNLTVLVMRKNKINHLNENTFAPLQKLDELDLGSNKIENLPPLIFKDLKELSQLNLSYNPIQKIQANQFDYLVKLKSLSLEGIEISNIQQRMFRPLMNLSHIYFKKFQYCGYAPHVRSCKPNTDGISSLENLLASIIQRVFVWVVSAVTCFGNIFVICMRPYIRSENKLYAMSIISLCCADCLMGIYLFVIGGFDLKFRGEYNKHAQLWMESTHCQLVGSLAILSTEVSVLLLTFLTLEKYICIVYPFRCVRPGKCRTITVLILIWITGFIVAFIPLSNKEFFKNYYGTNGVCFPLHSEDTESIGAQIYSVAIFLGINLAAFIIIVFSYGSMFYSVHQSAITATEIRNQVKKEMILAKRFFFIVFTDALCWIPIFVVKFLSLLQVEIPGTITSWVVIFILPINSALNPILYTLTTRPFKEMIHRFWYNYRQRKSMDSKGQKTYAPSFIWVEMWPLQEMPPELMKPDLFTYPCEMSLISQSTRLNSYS", "experiment": "Eu-H2 relaxin saturation binding assay, transfected HEK293T cells", "conditions": "C40A^ins full-length RXFP1 versus wild-type RXFP1"}, "RXFP1(1–72) [1]": {"target": "T3, RXFP1(1–72) (Homo sapiens, UniProt Q9HBX9)", "T3 construct": "GB1 (N, cleaved yes); made in house; host or cells: E. coli BL21 (DE3) trxB", "T3 sequence (Q9HBX9 23-94 limits assumed)": "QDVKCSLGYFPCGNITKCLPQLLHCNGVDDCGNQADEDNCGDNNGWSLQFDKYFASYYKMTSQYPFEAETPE", "experiment": "2D 1H-15N HSQC monitored H2 relaxin titration of 15N-labelled RXFP1(1–72)", "conditions": "50 μM 15N-labelled RXFP1(1–72); single-site binding curve fit of Asp51, Ala55, Thr61 chemical shifts; pH 6.8, 25 °C; read-out: affinity (Kd) of H2 relaxin for RXFP1(1–72)", "procedure": "(§1) All RXFP1(1–72) protein samples for nuclear magnetic resonance (NMR) experiments were prepared from lyophilized protein in 50 mM imidazole, with 10 mM CaCl2 at pH 6.8. Recombinant human gene-2 H2 relaxin peptide was kindly provided by Corthera. EL1^(475–486)/EL2-GB1 samples were prepared as described above. Titrant and titrand were dialyzed in the same buffer in the same vessel. All NMR experiments were routinely collected at 25 °C on a 700-MHz Bruker Avance HDIII spectrometer equipped with triple resonance cryoprobe. […] Backbone assignments were made from 3D HNCACB, HNCOCACB, HNCO and HNCACO experiments. Spectra were processed using NMRPipe (ref. [43]) and typically Fourier-transformed after applying Lorentz-to-Gauss window functions in the direct dimension and cosine bells in the indirect dimensions. NMR data were analysed using SPARKY (Goddard, T.D. and Kneller, D.G., University of California, San Francisco). Assignments of the mutant RXFP1(1–72) proteins were determined from the assignments of wild-type RXFP1(1–72).\nThe binding of H2 relaxin to RXFP1(1–72) was monitored by acquiring 2D ^1H-^15N Heteronuclear Single Quantum Coherence (HSQC; 2,048 × 256 data points) for each titration point of increasing H2 relaxin: 25, 50, 100, 200, 400 and 500 μM against 50 μM RXFP1(1–72). […]"}, "RXFP1(1–72) [2]": {"target": "T3, RXFP1(1–72)", "experiment": "NMR competition titration against the RXFP1(1–72)/Mn2+-DTPA-(A)-H2 complex", "type": "binding", "conditions": "50 μM peptide added to 50 μM 15N-RXFP1(1–72) with 0.2 μM Mn2+-DTPA-(A)-H2; pH 6.8, 25 °C", "procedure": "as §1\n^15N{^1H}-NOE experiments[45] (2,048 × 256 data points) were acquired with a saturation pulse of 4 s and an additional relaxation delay of 5 s. Sample conditions were 150 μM RXFP(1–72) or mutants either without or with 450 μM H2 relaxin. Binding to Mn^2+-DTPA-(A)-H2 to RXFP1(1–72) and mutants was monitored by recording 2D ^1H-^15N HSQC (2,048 × 256 data points) for 0.2 μM Mn^2+-DTPA-(A)-H2 against 50 μM RXFP1(1–72). H2 relaxin and its truncates such as A-chain (9–24), H2/I5 chimera and Phe23Ala A-chain mutant H2 were titrated into a complex of 50 μM RXFP1(1–72) and 0.2 μM Mn^2+-DTPA-(A)-H2 with increasing concentrations ranging from 5 to 50 μM."}}, "note": "“And” between values parts separate entries of the source, which are not always exact repeats. Equal entries are not always repeated."}
{"substance": "H2 relaxin: two-chain 6-kDa peptide hormone structurally related to insulin; recombinant human gene-2 H2 relaxin provided by Corthera", "values": [{"measurement": "loss in H2 relaxin binding", "setting": "RXFP1 F54A", "value": "fourfold"}, {"measurement": "decrease in H2 relaxin affinity", "setting": "RXFP1 C40A^ins", "value": "sixfold"}, {"measurement": "Kd", "setting": "RXFP1(1–72) [1]", "value": "200 µM and ~200 µM"}, {"measurement": "competition with Mn2+-DTPA-(A)-H2 for RXFP1(1–72) (peak intensities, chemical shifts)", "setting": "RXFP1(1–72) [2]", "value": "reappearance of the broadened peaks"}]}
